Measured values taken from paper PMC8028696 (Journal of Molecular Biology, 2021).

B1: IgG 15046 (antibody, V domains shown)
VH: EVQLVESGGGLVQPGGSLRLSCAASGFDFGSYAMHWVRQAPGKGLEWVAGIYASGGYTDYADSVKGRFTISADTSKNTAYLQMNSLRAEDTAVYYCARGWSYYWGFDYWGQGTLVTVSS
VL: DIQMTQSPSSLSASVGDRVTITCRASQSVSSAVAWYQQKPGKAPKLLIYSASSLYSGVPSRFSGSRSGTDFTLTISSLQPEDFATYYCQQYDYGLFTFGQGTKVEIK
B2: IgG 15036 (antibody, V domains shown)
VH: EVQLVESGGGLVQPGGSLRLSCAASGFDFTAYDIHWVRQAPGKGLEWVAGISASGGYTAYADSVKGRFTISADTSKNTAYLQMNSLRAEDTAVYYCARDGFHSYALDYWGQGTLVTVSS
VL: DIQMTQSPSSLSASVGDRVTITCRASQSVSSAVAWYQQKPGKAPKLLIYSASSLYSGVPSRFSGSRSGTDFTLTISSLQPEDFATYYCQQWYSLFTFGQGTKVEIK

Target: SARS-CoV-2 RBD (SARS-CoV-2 (P0DTC2 reference)); strain …, UniProt P0DTC2, biotin (site-specific, BirA, on the AviTag))
Assay: BLI

| Binder | Kd |
| --- | --- |
| B1 | 3.7 ± 0.1 nM |
| B2 | 2.2 ± 0.2 nM |
